The record followed here is patent publication US20140087995A1 (published 2014).

Assay [1] addresses T1, rat amylin receptor (rat calcitonin receptor + rat RAMP 3) (rat, UniProt P32214 25-516; Q9JJ73 23-147).
T1 construct: whole, on cells; Cell membranes of transiently transfected BHK tk'ts 13 cells (Assay VI); also called rAmylin-R; rat amylin 3(a) receptor
T1 sequence (looked up) 1: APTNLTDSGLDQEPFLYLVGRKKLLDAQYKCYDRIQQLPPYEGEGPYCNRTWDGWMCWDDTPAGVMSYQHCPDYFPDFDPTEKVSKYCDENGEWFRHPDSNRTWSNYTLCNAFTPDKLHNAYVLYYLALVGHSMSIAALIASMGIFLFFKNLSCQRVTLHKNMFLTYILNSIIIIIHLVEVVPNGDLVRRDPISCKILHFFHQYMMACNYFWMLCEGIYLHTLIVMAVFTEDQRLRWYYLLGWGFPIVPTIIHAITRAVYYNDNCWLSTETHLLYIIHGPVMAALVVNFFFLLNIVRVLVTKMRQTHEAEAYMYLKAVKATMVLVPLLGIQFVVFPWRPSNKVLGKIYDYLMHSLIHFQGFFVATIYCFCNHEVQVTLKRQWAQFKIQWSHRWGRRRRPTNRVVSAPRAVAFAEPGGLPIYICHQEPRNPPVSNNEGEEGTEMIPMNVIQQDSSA
T1 sequence (looked up) 2: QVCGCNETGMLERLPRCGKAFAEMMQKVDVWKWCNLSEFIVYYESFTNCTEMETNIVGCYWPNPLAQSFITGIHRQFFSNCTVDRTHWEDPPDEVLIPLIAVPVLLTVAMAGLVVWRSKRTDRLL
Put plainly: SPA competition vs 125I-rat amylin, membranes with rat CTR + rat RAMP3 (Assay VI).

Assay [2] deals with T2, rat calcitonin receptor (rat, UniProt P32214 25-516).
T2 construct: whole, on cells; Cell membranes of transiently transfected BHK tk'ts 13 cells (Assay VIII); also called rCTR; rCT
T2 sequence (looked up): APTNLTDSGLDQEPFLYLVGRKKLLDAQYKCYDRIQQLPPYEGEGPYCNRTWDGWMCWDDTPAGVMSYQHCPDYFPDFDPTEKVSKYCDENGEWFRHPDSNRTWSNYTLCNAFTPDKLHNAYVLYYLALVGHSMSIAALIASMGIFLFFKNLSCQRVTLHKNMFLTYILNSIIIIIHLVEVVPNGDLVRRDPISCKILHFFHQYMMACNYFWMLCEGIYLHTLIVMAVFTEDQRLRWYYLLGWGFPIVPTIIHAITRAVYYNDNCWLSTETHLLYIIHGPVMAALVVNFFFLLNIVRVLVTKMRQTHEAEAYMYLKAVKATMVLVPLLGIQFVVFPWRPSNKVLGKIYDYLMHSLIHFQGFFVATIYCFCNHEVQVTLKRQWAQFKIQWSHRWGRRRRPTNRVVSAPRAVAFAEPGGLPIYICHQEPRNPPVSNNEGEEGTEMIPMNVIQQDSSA
The assay is described as follows: ratio IC50 rat calcitonin receptor / IC50 rat amylin receptor.

Assay [3] has as its target T2, rat calcitonin receptor. Put plainly: SPA competition vs 125I-calcitonin, membranes with rat CTR (Assay VIII).

Numbered stars: 1 amine (or outer) side, 2 acyl side, 3 side chain; on linkers, the order of the positions; unused ones are H or OH. Bridge positions count the residues as written; N and C are the ends. Side chains are listed from the residue outwards. Ends that are not written are not given here. * marks the point of attachment. C20 diacid = O=C(O)CCCCCCCCCCCCCCCCCCC(=O)*; γGlu = O=C(O)[C@H](CCC(=O)[*:2])N[*:1]; AEEA = NCCOCCOCC(=O)O

B1: N^ε1-[2-[2-[2-[[(4S)-4-carboxy-4-(19-carboxynonadecanoylamino)butanoyl]amino]ethoxy]ethoxy]acetyl]-[Arg17,Pro21,Pro27,Pro29,Pro34]-h-amylin (peptide)
peptide: K([AEEA-γGlu-C20 diacid])CNTATCATQRLANFLRHSSPNFGAIPSPTNVGPNTY-NH2
modifications: disulfide 2-7; N-terminus assumed
SMILES: CC[C@H](C)[C@H](NC(=O)[C@H](C)NC(=O)CNC(=O)[C@H](Cc1ccccc1)NC(=O)[C@H](CC(N)=O)NC(=O)[C@@H]1CCCN1C(=O)[C@H](CO)NC(=O)[C@H](CO)NC(=O)[C@H](Cc1c[nH]cn1)NC(=O)[C@H](CCCNC(=N)N)NC(=O)[C@H](CC(C)C)NC(=O)[C@H](Cc1ccccc1)NC(=O)[C@H](CC(N)=O)NC(=O)[C@H](C)NC(=O)[C@H](CC(C)C)NC(=O)[C@H](CCCNC(=N)N)NC(=O)[C@H](CCC(N)=O)NC(=O)[C@@H](NC(=O)[C@H](C)NC(=O)[C@@H]1CSSC[C@H](NC(=O)[C@@H](N)CCCCNC(=O)COCCOCCNC(=O)CC[C@H](NC(=O)CCCCCCCCCCCCCCCCCCC(=O)O)C(=O)O)C(=O)N[C@@H](CC(N)=O)C(=O)N[C@@H]([C@@H](C)O)C(=O)N[C@@H](C)C(=O)N[C@@H]([C@@H](C)O)C(=O)N1)[C@@H](C)O)C(=O)N1CCC[C@H]1C(=O)N[C@@H](CO)C(=O)N1CCC[C@H]1C(=O)N[C@H](C(=O)N[C@@H](CC(N)=O)C(=O)N[C@H](C(=O)NCC(=O)N1CCC[C@H]1C(=O)N[C@@H](CC(N)=O)C(=O)N[C@H](C(=O)N[C@@H](Cc1ccc(O)cc1)C(N)=O)[C@@H](C)O)C(C)C)[C@@H](C)O
notes: Acylated analogue of human amylin; also called compound 56
Take B1: the IC50 in assay [1] was 0.04 nM; with rat calcitonin receptor [3], 5.26 nM. Besides, the “Ratio rCT/rAmylin binding” value with rat calcitonin receptor [2] was determined as 131.

B2: N^ε1-[2-[2-[2-[[(4S)-4-carboxy-4-(19-carboxynonadecanoylamino)butanoyl]amino]ethoxy]ethoxy]acetyl]-[Arg17,Pro21,Pro27,Pro34]-h-amylin (peptide)
peptide: K([AEEA-γGlu-C20 diacid])CNTATCATQRLANFLRHSSPNFGAIPSSTNVGPNTY-NH2
modifications: disulfide 2-7; N-terminus assumed
SMILES: CC[C@H](C)[C@H](NC(=O)[C@H](C)NC(=O)CNC(=O)[C@H](Cc1ccccc1)NC(=O)[C@H](CC(N)=O)NC(=O)[C@@H]1CCCN1C(=O)[C@H](CO)NC(=O)[C@H](CO)NC(=O)[C@H](Cc1c[nH]cn1)NC(=O)[C@H](CCCNC(=N)N)NC(=O)[C@H](CC(C)C)NC(=O)[C@H](Cc1ccccc1)NC(=O)[C@H](CC(N)=O)NC(=O)[C@H](C)NC(=O)[C@H](CC(C)C)NC(=O)[C@H](CCCNC(=N)N)NC(=O)[C@H](CCC(N)=O)NC(=O)[C@@H](NC(=O)[C@H](C)NC(=O)[C@@H]1CSSC[C@H](NC(=O)[C@@H](N)CCCCNC(=O)COCCOCCNC(=O)CC[C@H](NC(=O)CCCCCCCCCCCCCCCCCCC(=O)O)C(=O)O)C(=O)N[C@@H](CC(N)=O)C(=O)N[C@@H]([C@@H](C)O)C(=O)N[C@@H](C)C(=O)N[C@@H]([C@@H](C)O)C(=O)N1)[C@@H](C)O)C(=O)N1CCC[C@H]1C(=O)N[C@@H](CO)C(=O)N[C@@H](CO)C(=O)N[C@H](C(=O)N[C@@H](CC(N)=O)C(=O)N[C@H](C(=O)NCC(=O)N1CCC[C@H]1C(=O)N[C@@H](CC(N)=O)C(=O)N[C@H](C(=O)N[C@@H](Cc1ccc(O)cc1)C(N)=O)[C@@H](C)O)C(C)C)[C@@H](C)O
notes: Acylated analogue of human amylin; also called compound 50
For the molecule B2, the IC50 in assay [1] was found to be 0.069 nM; with rat calcitonin receptor [3] it was 5.63 nM. The “Ratio rCT/rAmylin binding” value with rat calcitonin receptor [2] turned out to be 81.7.

B3: N^ε1-[2-[2-[2-[[(4S)-4-carboxy-4-(19-carboxynonadecanoylamino)butanoyl]amino]ethoxy]ethoxy]acetyl]-[Arg17,Pro21,Pro27,Pro34,His35]-h-amylin (peptide)
peptide: K([AEEA-γGlu-C20 diacid])CNTATCATQRLANFLRHSSPNFGAIPSSTNVGPHTY-NH2
modifications: disulfide 2-7; N-terminus assumed
SMILES: CC[C@H](C)[C@H](NC(=O)[C@H](C)NC(=O)CNC(=O)[C@H](Cc1ccccc1)NC(=O)[C@H](CC(N)=O)NC(=O)[C@@H]1CCCN1C(=O)[C@H](CO)NC(=O)[C@H](CO)NC(=O)[C@H](Cc1c[nH]cn1)NC(=O)[C@H](CCCNC(=N)N)NC(=O)[C@H](CC(C)C)NC(=O)[C@H](Cc1ccccc1)NC(=O)[C@H](CC(N)=O)NC(=O)[C@H](C)NC(=O)[C@H](CC(C)C)NC(=O)[C@H](CCCNC(=N)N)NC(=O)[C@H](CCC(N)=O)NC(=O)[C@@H](NC(=O)[C@H](C)NC(=O)[C@@H]1CSSC[C@H](NC(=O)[C@@H](N)CCCCNC(=O)COCCOCCNC(=O)CC[C@H](NC(=O)CCCCCCCCCCCCCCCCCCC(=O)O)C(=O)O)C(=O)N[C@@H](CC(N)=O)C(=O)N[C@@H]([C@@H](C)O)C(=O)N[C@@H](C)C(=O)N[C@@H]([C@@H](C)O)C(=O)N1)[C@@H](C)O)C(=O)N1CCC[C@H]1C(=O)N[C@@H](CO)C(=O)N[C@@H](CO)C(=O)N[C@H](C(=O)N[C@@H](CC(N)=O)C(=O)N[C@H](C(=O)NCC(=O)N1CCC[C@H]1C(=O)N[C@@H](Cc1c[nH]cn1)C(=O)N[C@H](C(=O)N[C@@H](Cc1ccc(O)cc1)C(N)=O)[C@@H](C)O)C(C)C)[C@@H](C)O
notes: Acylated analogue of human amylin; also called compound 58
On to B3, for which the IC50 in assay [1] came out at 0.135 nM; with rat calcitonin receptor [3], 10.3 nM. For the same molecule, the “Ratio rCT/rAmylin binding” value with rat calcitonin receptor [2] amounted to 76.6.

B4: N^ε1-[2-[2-[2-[[(4S)-4-carboxy-4-(19-carboxynonadecanoylamino)butanoyl]amino]ethoxy]ethoxy]acetyl]-[Arg17,Pro21,Pro27,Pro31,His35]-h-amylin (peptide)
peptide: K([AEEA-γGlu-C20 diacid])CNTATCATQRLANFLRHSSPNFGAIPSSTPVGSHTY-NH2
modifications: disulfide 2-7; N-terminus assumed
SMILES: CC[C@H](C)[C@H](NC(=O)[C@H](C)NC(=O)CNC(=O)[C@H](Cc1ccccc1)NC(=O)[C@H](CC(N)=O)NC(=O)[C@@H]1CCCN1C(=O)[C@H](CO)NC(=O)[C@H](CO)NC(=O)[C@H](Cc1c[nH]cn1)NC(=O)[C@H](CCCNC(=N)N)NC(=O)[C@H](CC(C)C)NC(=O)[C@H](Cc1ccccc1)NC(=O)[C@H](CC(N)=O)NC(=O)[C@H](C)NC(=O)[C@H](CC(C)C)NC(=O)[C@H](CCCNC(=N)N)NC(=O)[C@H](CCC(N)=O)NC(=O)[C@@H](NC(=O)[C@H](C)NC(=O)[C@@H]1CSSC[C@H](NC(=O)[C@@H](N)CCCCNC(=O)COCCOCCNC(=O)CC[C@H](NC(=O)CCCCCCCCCCCCCCCCCCC(=O)O)C(=O)O)C(=O)N[C@@H](CC(N)=O)C(=O)N[C@@H]([C@@H](C)O)C(=O)N[C@@H](C)C(=O)N[C@@H]([C@@H](C)O)C(=O)N1)[C@@H](C)O)C(=O)N1CCC[C@H]1C(=O)N[C@@H](CO)C(=O)N[C@@H](CO)C(=O)N[C@H](C(=O)N1CCC[C@H]1C(=O)N[C@H](C(=O)NCC(=O)N[C@@H](CO)C(=O)N[C@@H](Cc1c[nH]cn1)C(=O)N[C@H](C(=O)N[C@@H](Cc1ccc(O)cc1)C(N)=O)[C@@H](C)O)C(C)C)[C@@H](C)O
notes: Acylated analogue of human amylin; also called compound 57
As for B4, the IC50 in assay [1] is 0.181 nM; in the assay with rat calcitonin receptor [3], 24.4 nM. For the same molecule, in the assay with rat calcitonin receptor [2], the “Ratio rCT/rAmylin binding” value is 135.

Usually IC50 stands for the point on the concentration scale where inhibition reaches its midpoint.
